This is an account of results in patent publication US20180100026A1.

Several values for one entry are separate records, joined by “and”; a condition that tells them apart may be missing. Equal values may be shown once.

Common to all, as to assay: cell-based or functional assay
Test [1] concerns the target anti-FITC CAR (FITC-E2 scFv, CD8 hinge and transmembrane region, 41BB and CD3 zeta) on human T cells.
Test [2] deals with anti-FITC CAR with the 4M5.3 scFv (LV-EF1a-4M5.3-BBZ), on transduced human T cells.
Test [3] has as its target anti-FITC CAR with the 4D5Flu scFv (LV-EF1a-4D5Flu-BBZ), on transduced human T cells.
Test [4] deals with anti-FITC CAR with the fully human FITC-E2 scFv (CD8 hinge, 41BB, CD3 zeta), on transduced human T cells.
In test [5] the target is anti-FITC CAR with the 4-4-20 scFv (LV-EF1a-4-4-20-BBZ), on transduced human T cells.
For test [6], the target named is CD19 on NALM-6 (CD19+) cells (human) (UniProt P15391).
In test [7] the target is CD33 on MOLM14 cells (human) (UniProt P20138).
The target in another test is CD19 (human) (UniProt P15391).
Sequence of CD19 (human) (P15391 20-556): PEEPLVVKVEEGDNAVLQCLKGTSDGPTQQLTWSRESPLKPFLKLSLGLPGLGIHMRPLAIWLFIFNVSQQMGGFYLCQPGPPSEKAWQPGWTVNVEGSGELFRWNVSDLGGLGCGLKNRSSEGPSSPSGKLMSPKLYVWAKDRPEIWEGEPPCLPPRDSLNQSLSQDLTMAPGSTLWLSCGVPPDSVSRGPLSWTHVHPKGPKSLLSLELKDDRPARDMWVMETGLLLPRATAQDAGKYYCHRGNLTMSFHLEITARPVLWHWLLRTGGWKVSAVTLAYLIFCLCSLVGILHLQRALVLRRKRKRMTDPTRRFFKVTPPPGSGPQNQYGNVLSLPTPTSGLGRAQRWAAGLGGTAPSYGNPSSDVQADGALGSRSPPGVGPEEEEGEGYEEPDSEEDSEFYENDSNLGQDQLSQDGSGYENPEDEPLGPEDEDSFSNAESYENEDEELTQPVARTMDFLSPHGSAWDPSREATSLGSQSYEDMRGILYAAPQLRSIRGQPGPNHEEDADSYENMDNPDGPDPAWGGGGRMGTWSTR

Sequence of CD19 on NALM-6 (CD19+) cells (human) (P15391 20-556): as above
Sequence of anti-FITC CAR with the fully human FITC-E2 scFv (CD8 hinge, 41BB, CD3 zeta), on transduced human T cells (chain, as listed by the source limits assumed): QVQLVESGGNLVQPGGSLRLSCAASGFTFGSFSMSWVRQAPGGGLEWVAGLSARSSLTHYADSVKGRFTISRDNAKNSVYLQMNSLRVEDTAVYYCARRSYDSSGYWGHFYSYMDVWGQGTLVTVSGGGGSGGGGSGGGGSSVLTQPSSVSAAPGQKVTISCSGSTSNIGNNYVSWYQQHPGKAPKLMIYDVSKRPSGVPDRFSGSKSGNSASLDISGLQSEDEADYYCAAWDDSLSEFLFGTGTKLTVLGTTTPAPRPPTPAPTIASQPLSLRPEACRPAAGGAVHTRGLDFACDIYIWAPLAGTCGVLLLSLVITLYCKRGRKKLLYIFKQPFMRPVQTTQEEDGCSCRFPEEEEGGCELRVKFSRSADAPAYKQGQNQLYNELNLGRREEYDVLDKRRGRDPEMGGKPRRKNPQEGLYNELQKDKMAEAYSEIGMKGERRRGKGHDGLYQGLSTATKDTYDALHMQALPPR
Sequence of CD33 on MOLM14 cells (human) (P20138 18-364): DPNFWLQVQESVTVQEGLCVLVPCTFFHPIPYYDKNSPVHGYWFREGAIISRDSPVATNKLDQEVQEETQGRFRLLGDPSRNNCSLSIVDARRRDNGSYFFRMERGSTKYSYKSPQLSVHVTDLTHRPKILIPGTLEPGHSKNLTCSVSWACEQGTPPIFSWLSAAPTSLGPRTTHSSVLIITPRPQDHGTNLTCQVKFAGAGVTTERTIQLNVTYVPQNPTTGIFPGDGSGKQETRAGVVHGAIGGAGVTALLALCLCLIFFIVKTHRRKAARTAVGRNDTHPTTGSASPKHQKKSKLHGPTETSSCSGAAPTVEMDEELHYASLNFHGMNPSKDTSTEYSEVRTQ

Regarding “non-conjugated anti-CD19 Fab (clone FMC63)”, in test [1], the % cytotoxicity at 0.0001 pM; anti-FITC CAR-T; FIG. 72A was 1.78%, the % cytotoxicity at 0.0001 pM; anti-FITC CAR-T; FIG. 72C stood at 1.12%, the % cytotoxicity at 0.001 pM; anti-FITC CAR-T; FIG. 72A was 0.731% and the % cytotoxicity at 0.001 pM; anti-FITC CAR-T; FIG. 72B is 2.73%. In test [1], this substance gave a % cytotoxicity at 0.001 pM; anti-FITC CAR-T; FIG. 72C of 5.24%, a % cytotoxicity at 0.01 pM; anti-FITC CAR-T; FIG. 72A of 8.15%, a % cytotoxicity at 0.01 pM; anti-FITC CAR-T; FIG. 72B of 2.04% and a % cytotoxicity at 0.1 pM; anti-FITC CAR-T; FIG. 72A of 1.96%. Moreover, in test [1], the % cytotoxicity at 0.1 pM; anti-FITC CAR-T; FIG. 72C was 2.66%, the % cytotoxicity at 1 pM; anti-FITC CAR-T; FIG. 72A was 4.93%, the % cytotoxicity at 1 pM; anti-FITC CAR-T; FIG. 72B stood at 3.84% and the % cytotoxicity at 1 pM; anti-FITC CAR-T; FIG. 72C was 1.99%. Moreover, in test [1], the % cytotoxicity at 10 pM; anti-FITC CAR-T; FIG. 72A is 3.73% and 2.56%; the % cytotoxicity at 10 pM; anti-FITC CAR-T; FIG. 72B is 4.56% and 2.09%; the % cytotoxicity at 10 pM; anti-FITC CAR-T; FIG. 72C was 1.85% and 9.94%; the % cytotoxicity at 100 pM; anti-FITC CAR-T; FIG. 72A was 4.61% and 8.92%. In addition, in test [1], the % cytotoxicity at 100 pM; anti-FITC CAR-T; FIG. 72B is 3.24% and 1.4%; the % cytotoxicity at 100 pM; anti-FITC CAR-T; FIG. 72C was 4.45% and 12.1%; the % cytotoxicity at 1000 pM; anti-FITC CAR-T; FIG. 72B was 10.5% and 2.6%; the % cytotoxicity at 1000 pM; anti-FITC CAR-T; FIG. 72C is 2.18% and 5.61%. Besides, in test [1], the % cytotoxicity at 10000 pM; anti-FITC CAR-T; FIG. 72A was 11.7% and 1.87%; the % cytotoxicity at 10000 pM; anti-FITC CAR-T; FIG. 72B worked out at 2.58%; the % cytotoxicity at 10000 pM; anti-FITC CAR-T; FIG. 72C was 1.37% and 1.83%.
Regarding “anti-CD19 AB-FITC switch (anti-human CD19 Fab, clone FMC63, FITC conjugated at light chain glycine 68 and heavy chain serine 74)”, in test [2], the % cytotoxicity of CD19+ target cells, FIG. 68A, switch at 0.01 pM is 21%; the % cytotoxicity of CD19+ target cells, FIG. 68A, switch at 0.1 pM is 46.4% and 33.9%; the % cytotoxicity of CD19+ target cells, FIG. 68A, switch at 1 pM was 58.2% and 56.6%; the % cytotoxicity of CD19+ target cells, FIG. 68A, switch at 10 pM is 58.9% and 48.9%. In test [2], the % cytotoxicity of CD19+ target cells, FIG. 68A, switch at 100 pM was 70.5% and 71.3%; the % cytotoxicity of CD19+ target cells, FIG. 68A, switch at 1000 pM was found to be 83.2%; the % cytotoxicity of CD19+ target cells, FIG. 68A, switch at 10000 pM was 85.7% and 72%; the % cytotoxicity of CD19+ target cells, FIG. 68B, switch at 0.0001 pM amounted to 2%. For the same substance, in test [2], the % cytotoxicity of CD19+ target cells, FIG. 68B, switch at 0.001 pM worked out at 9.17%; the % cytotoxicity of CD19+ target cells, FIG. 68B, switch at 0.01 pM came out at 1.15%; the % cytotoxicity of CD19+ target cells, FIG. 68B, switch at 0.1 pM was determined as 25.4%; the % cytotoxicity of CD19+ target cells, FIG. 68B, switch at 1 pM is 28.5% and 27.5%. For the same substance, in test [2], the % cytotoxicity of CD19+ target cells, FIG. 68B, switch at 10 pM was found to be 58.4%; the % cytotoxicity of CD19+ target cells, FIG. 68B, switch at 100 pM is 60.8% and 65.8%; the % cytotoxicity of CD19+ target cells, FIG. 68B, switch at 1000 pM was 73.4% and 71.5%; the % cytotoxicity of CD19+ target cells, FIG. 68B, switch at 10000 pM is 64.2% and 55.2%. Also, in test [3], the % cytotoxicity of CD19+ target cells, FIG. 68A, switch at 0.01 pM is 24% and 29.5%; the % cytotoxicity of CD19+ target cells, FIG. 68A, switch at 0.1 pM is 39.3% and 45.7%; the % cytotoxicity of CD19+ target cells, FIG. 68A, switch at 1 pM amounted to 60.1%; the % cytotoxicity of CD19+ target cells, FIG. 68A, switch at 10 pM is 56.1% and 67.7%. Besides, in test [3], the % cytotoxicity of CD19+ target cells, FIG. 68A, switch at 100 pM is 74.3% and 69.3%; the % cytotoxicity of CD19+ target cells, FIG. 68A, switch at 1000 pM turned out to be 84.8%; the % cytotoxicity of CD19+ target cells, FIG. 68A, switch at 10000 pM is 73.6% and 76.9%; the % cytotoxicity of CD19+ target cells, FIG. 68A, switch at 1.00E-04 pM was 6.29%. Besides, in test [3], the % cytotoxicity of CD19+ target cells, FIG. 68B, switch at 0.01 pM was 1.9% and 8.37%; the % cytotoxicity of CD19+ target cells, FIG. 68B, switch at 0.1 pM was 10.9% and 10.4%; the % cytotoxicity of CD19+ target cells, FIG. 68B, switch at 1 pM was 39.4% and 32.9%; the % cytotoxicity of CD19+ target cells, FIG. 68B, switch at 10 pM was 63.2% and 68.1%. In test [3], the % cytotoxicity of CD19+ target cells, FIG. 68B, switch at 100 pM was 69.4% and 61.2%; the % cytotoxicity of CD19+ target cells, FIG. 68B, switch at 1000 pM is 72.5% and 63.6%; the % cytotoxicity of CD19+ target cells, FIG. 68B, switch at 10000 pM is 69.1% and 66.8%. In test [4], the % cytotoxicity of CD19+ target cells, FIG. 68A, switch at 0.01 pM was 26.7% and 38.4%; the % cytotoxicity of CD19+ target cells, FIG. 68A, switch at 0.1 pM is 49% and 60.5%; the % cytotoxicity of CD19+ target cells, FIG. 68A, switch at 1 pM was 51% and 75.3%; the % cytotoxicity of CD19+ target cells, FIG. 68A, switch at 10 pM is 62.1% and 75.5%. For the same substance, in test [4], the % cytotoxicity of CD19+ target cells, FIG. 68A, switch at 100 pM was 69.6% and 80.5%; the % cytotoxicity of CD19+ target cells, FIG. 68A, switch at 1000 pM was 80.6% and 99.8%; the % cytotoxicity of CD19+ target cells, FIG. 68A, switch at 10000 pM is 93.1% and 100%; the % cytotoxicity of CD19+ target cells, FIG. 68A, switch at 1.00E-03 pM was 10.3% and 25.2%. For the same substance, in test [4], the % cytotoxicity of CD19+ target cells, FIG. 68B, switch at 0.0001 pM is 3.26% and 17%; the % cytotoxicity of CD19+ target cells, FIG. 68B, switch at 0.001 pM was 19.6%; the % cytotoxicity of CD19+ target cells, FIG. 68B, switch at 0.01 pM was 17.4%; the % cytotoxicity of CD19+ target cells, FIG. 68B, switch at 0.1 pM came out at 15%. In test [4], the % cytotoxicity of CD19+ target cells, FIG. 68B, switch at 1 pM is 47.4% and 43.2%; the % cytotoxicity of CD19+ target cells, FIG. 68B, switch at 10 pM was 64.6% and 70.1%; the % cytotoxicity of CD19+ target cells, FIG. 68B, switch at 100 pM is 60.7% and 67.6%; the % cytotoxicity of CD19+ target cells, FIG. 68B, switch at 1000 pM was 70.4%. Moreover, in test [4], the % cytotoxicity of CD19+ target cells, FIG. 68B, switch at 10000 pM is 72.7% and 75.4%. In test [5], the % cytotoxicity of CD19+ target cells, FIG. 68A, switch at 0.01 pM worked out at 0.526%; the % cytotoxicity of CD19+ target cells, FIG. 68A, switch at 0.1 pM was 32.8% and 33.3%; the % cytotoxicity of CD19+ target cells, FIG. 68A, switch at 1 pM turned out to be 52.3%; the % cytotoxicity of CD19+ target cells, FIG. 68A, switch at 10 pM was 64.9% and 66.1%. In test [5], the % cytotoxicity of CD19+ target cells, FIG. 68A, switch at 100 pM was 71.7% and 65.6%; the % cytotoxicity of CD19+ target cells, FIG. 68A, switch at 1000 pM is 67.8%; the % cytotoxicity of CD19+ target cells, FIG. 68A, switch at 10000 pM is 74.1% and 71.5%; the % cytotoxicity of CD19+ target cells, FIG. 68A, switch at 1.00E-03 pM came to 4.97%. Besides, in test [5], the % cytotoxicity of CD19+ target cells, FIG. 68B, switch at 0.1 pM was 14.8% and 10.9%; the % cytotoxicity of CD19+ target cells, FIG. 68B, switch at 1 pM was 36.7% and 37.8%; the % cytotoxicity of CD19+ target cells, FIG. 68B, switch at 10 pM is 59% and 46.7%; the % cytotoxicity of CD19+ target cells, FIG. 68B, switch at 100 pM was 57.9%. In test [5], the % cytotoxicity of CD19+ target cells, FIG. 68B, switch at 1000 pM is 55.8% and the % cytotoxicity of CD19+ target cells, FIG. 68B, switch at 10000 pM was found to be 68.6%.
Take isotype control (Millipore) (antibody): in test [6], the % cytotoxicity, anti-FITC CAR-T + NALM-6 + 10 pM AB-FITC, with 0 pM isotype (IgG) is 54.6% and 51.4%; the % cytotoxicity, anti-FITC CAR-T + NALM-6 + 10 pM AB-FITC, with 1 pM isotype (IgG) is 48.3% and 48.2%; the % cytotoxicity, anti-FITC CAR-T + NALM-6 + 10 pM AB-FITC, with 10 pM isotype (IgG) was 49.6% and 49.9%; the % cytotoxicity, anti-FITC CAR-T + NALM-6 + 10 pM AB-FITC, with 100 pM isotype (IgG) is 50% and 44.7%. For the same substance, in test [6], the % cytotoxicity, anti-FITC CAR-T + NALM-6 + 10 pM AB-FITC, with 1000 pM isotype (IgG) was 45.7% and 41.6%; the % cytotoxicity, anti-FITC CAR-T + NALM-6 + 10 pM AB-FITC, with 10000 pM isotype (IgG) is 44.4% and 43%.
In turn, “anti-CD33 hM195 CD-FITC switch (light chain T113 and heavy chain A117) (Fab)” registered an EC50 of cytotoxicity of anti-FITC CAR-T cells against MOLM14 cells in test [7] of 0.0185 nM.
Regarding “anti-CD19 AB-FITC switch (anti-CD19 Fab, clone FMC63, FITC conjugated at light chain glycine 68 and heavy chain serine 74)”, in test [1], the % cytotoxicity, anti-FITC CAR-T + NALM-6 + 10 pM AB-FITC, with 0 nM free fluorescein stood at 54.8%; the % cytotoxicity, anti-FITC CAR-T + NALM-6 + 10 pM AB-FITC, with 1 nM free fluorescein is 57.1% and 58.1%; the % cytotoxicity, anti-FITC CAR-T + NALM-6 + 10 pM AB-FITC, with 10 nM free fluorescein was 56.2% and 56%; the % cytotoxicity, anti-FITC CAR-T + NALM-6 + 10 pM AB-FITC, with 100 nM free fluorescein worked out at 55.7%. In addition, in test [1], the % cytotoxicity, anti-FITC CAR-T + NALM-6 + 10 pM AB-FITC, with 1000 nM free fluorescein was 50.4% and 50.9%; the % cytotoxicity, anti-FITC CAR-T + NALM-6 + 10 pM AB-FITC, with 10000 nM free fluorescein was 27.4% and 31.6%.
As to “CART-19: second generation CD19 specific CAR with anti-CD19 scFv (clone FMC63), 41BB and CD3zeta, on human T cells”, in the test with CD19 (human), the Human IFN-g, CART19 + Nalm-6 is 915 and 924 and 951; the target cell lysis, CART19 + Nalm-6, E:T 0.04:1 is 12.6 and 13; the target cell lysis, CART19 + Nalm-6, E:T 0.2:1 was 21.7 and 24.5; the target cell lysis, CART19 + Nalm-6, E:T printed as 1:01 is 52 and 48. Also, in the test with CD19 (human), the target cell lysis, CART19 + Nalm-6, E:T printed as 5:01 was 75.2 and 73.3; the target cell lysis, CART19 + Nalm-6, E:T printed as 15:01 is 87.3 and 88.3.
